Consider 2 molecules from patent publication US20190145976A1 (GOVERNING COUNCIL OF THE UNIVERSITY OF TORONTO, published 2019).

Test [1] addresses T1, recombinant soluble human αKlotho (human, UniProt Q9UEF7 34-981).
T1 construct: extracellular domain; Bought (R&D Systems); also called Hu aKL; soluble human αKlotho ectodomain
T1 sequence (looked up): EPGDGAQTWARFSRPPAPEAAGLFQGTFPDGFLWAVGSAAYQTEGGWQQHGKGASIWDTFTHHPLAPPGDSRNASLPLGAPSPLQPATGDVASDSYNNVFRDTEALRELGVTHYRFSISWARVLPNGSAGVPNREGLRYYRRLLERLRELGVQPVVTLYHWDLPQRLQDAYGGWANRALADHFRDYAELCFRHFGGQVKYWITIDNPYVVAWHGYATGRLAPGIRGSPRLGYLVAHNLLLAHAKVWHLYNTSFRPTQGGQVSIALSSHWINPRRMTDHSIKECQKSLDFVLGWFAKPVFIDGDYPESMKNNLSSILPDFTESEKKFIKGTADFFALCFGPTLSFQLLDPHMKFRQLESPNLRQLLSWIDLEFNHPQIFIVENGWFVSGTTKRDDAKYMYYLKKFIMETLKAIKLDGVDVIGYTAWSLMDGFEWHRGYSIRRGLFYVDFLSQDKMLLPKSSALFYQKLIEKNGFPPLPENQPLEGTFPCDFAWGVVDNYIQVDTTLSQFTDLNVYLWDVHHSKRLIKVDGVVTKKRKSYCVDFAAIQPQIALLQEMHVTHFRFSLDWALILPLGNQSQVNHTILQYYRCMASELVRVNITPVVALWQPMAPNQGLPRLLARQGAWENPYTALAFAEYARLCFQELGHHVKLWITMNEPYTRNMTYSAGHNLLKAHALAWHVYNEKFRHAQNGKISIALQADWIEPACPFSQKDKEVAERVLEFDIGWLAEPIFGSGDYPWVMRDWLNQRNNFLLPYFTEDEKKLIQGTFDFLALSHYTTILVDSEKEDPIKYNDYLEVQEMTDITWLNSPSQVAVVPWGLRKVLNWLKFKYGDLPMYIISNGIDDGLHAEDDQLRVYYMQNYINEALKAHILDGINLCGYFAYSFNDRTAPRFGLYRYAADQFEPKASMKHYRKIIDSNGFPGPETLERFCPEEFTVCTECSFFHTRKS
In words: competitive Fab-phage ELISA with soluble human αKlotho as competitor (FIG. 1C). How it is done:
(§1) (B) Specificity determination of anti-αKlotho sb106 by Fab-phage ELISA: sb106 Fab-phage were incubated with the following immobilized antigens: a complex of FGFR1c/αKlotho complex (aKL-R1), FGFR1c alone (R1), human αKlotho (Hu aKL) and mouse αKlotho (Mu aKL), or neutravidin (NA) and bovine serum albumin (BSA) as negative controls. After washing off unbound phage, bound phages were detected using an HRP-conjugated anti-phage antibody. Colorimetric HRP reagents allow for absorbance readings at 450 nm. […] The binding signals to immobilized human αKlotho reported are an average of two data sets.
(§2) Binding selections, phage ELISAs and Fab protein purification were performed as described. Briefly, phage from library F were cycled through rounds of panning with the binary complex of αKlotho extracellular domain and FGFR1c ligand-binding domain on 96-well Maxisorp Immunoplates (Fisher Scientific, Nepean, ON, Canada) as the capture target. After 5 rounds of selection, phage were produced from individual clones grown in a 96-well format and phage ELISAs were performed to detect specific binding clones. […] A competitive binding ELISA was performed by pre-incubating sb106-phage with serial dilutions of soluble human αKlotho (50-0.0005 nM×1 hour) prior to binding to an ELISA plate coated with human αKlotho. […]
(In general: In an ELISA, binding on a coated surface is turned into a signal by an enzyme label.)

In test [2] the target is T2, ligand-binding domain of human FGFR1c (D142 to R365) (human, UniProt P11362 142-365).
T2 construct: range 142-365; also called FGFR1c alone
T2 sequence (looked up): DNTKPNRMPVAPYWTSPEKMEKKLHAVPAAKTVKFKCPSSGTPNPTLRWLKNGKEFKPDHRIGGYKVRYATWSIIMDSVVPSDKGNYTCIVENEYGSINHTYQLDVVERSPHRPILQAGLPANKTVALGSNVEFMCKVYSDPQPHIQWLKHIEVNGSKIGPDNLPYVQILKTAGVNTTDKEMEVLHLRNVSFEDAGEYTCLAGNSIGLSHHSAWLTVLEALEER
In words: Fab-phage ELISA on immobilised antigen, HRP-conjugated anti-phage antibody, absorbance at 450 nm. How it is done: as §1
(§3) Binding selections, phage ELISAs and Fab protein purification were performed as described. Briefly, phage from library F were cycled through rounds of panning with the binary complex of αKlotho extracellular domain and FGFR1c ligand-binding domain on 96-well Maxisorp Immunoplates (Fisher Scientific, Nepean, ON, Canada) as the capture target. After 5 rounds of selection, phage were produced from individual clones grown in a 96-well format and phage ELISAs were performed to detect specific binding clones. […] A competitive binding ELISA was performed by pre-incubating sb106-phage with serial dilutions of soluble human αKlotho (50-0.0005 nM×1 hour) prior to binding to an ELISA plate coated with human αKlotho. […] Fab and IgG proteins were affinity-purified on Protein A affinity columns (GE Healthcare, Mississauga, ON, Canada).

For another test, the target named is T3, neutravidin (UniProt P02701 25-152).
T3 construct: Negative control in the phage ELISA; also called NA; NAV
The test is described as above. How it is done: as §1, §3

The next test concerns the target T4, bovine serum albumin (bovine, UniProt P02769 25-607).
T4 construct: Negative control in the phage ELISA; also called BSA
The description is as above. How it is done: as §1, §3

For test [3], the target named is T1, recombinant soluble human αKlotho. In words: competitive Fab-phage ELISA: sb106-phage pre-incubated with soluble human αKlotho (50-0.0005 nM), then bound to plate-coated human αKlotho; competitive Fab-phage ELISA; soluble human αKlotho as competitor. How it is done: as §1, §2
Test [4] addresses T5, native rat αKlotho in tissue and NRK cells (rat, UniProt Q9Z2Y9 35-1014).
T5 construct: also called αKlotho of rat parathyroid tissue; native αKlotho of NRK cells
T5 sequence (looked up): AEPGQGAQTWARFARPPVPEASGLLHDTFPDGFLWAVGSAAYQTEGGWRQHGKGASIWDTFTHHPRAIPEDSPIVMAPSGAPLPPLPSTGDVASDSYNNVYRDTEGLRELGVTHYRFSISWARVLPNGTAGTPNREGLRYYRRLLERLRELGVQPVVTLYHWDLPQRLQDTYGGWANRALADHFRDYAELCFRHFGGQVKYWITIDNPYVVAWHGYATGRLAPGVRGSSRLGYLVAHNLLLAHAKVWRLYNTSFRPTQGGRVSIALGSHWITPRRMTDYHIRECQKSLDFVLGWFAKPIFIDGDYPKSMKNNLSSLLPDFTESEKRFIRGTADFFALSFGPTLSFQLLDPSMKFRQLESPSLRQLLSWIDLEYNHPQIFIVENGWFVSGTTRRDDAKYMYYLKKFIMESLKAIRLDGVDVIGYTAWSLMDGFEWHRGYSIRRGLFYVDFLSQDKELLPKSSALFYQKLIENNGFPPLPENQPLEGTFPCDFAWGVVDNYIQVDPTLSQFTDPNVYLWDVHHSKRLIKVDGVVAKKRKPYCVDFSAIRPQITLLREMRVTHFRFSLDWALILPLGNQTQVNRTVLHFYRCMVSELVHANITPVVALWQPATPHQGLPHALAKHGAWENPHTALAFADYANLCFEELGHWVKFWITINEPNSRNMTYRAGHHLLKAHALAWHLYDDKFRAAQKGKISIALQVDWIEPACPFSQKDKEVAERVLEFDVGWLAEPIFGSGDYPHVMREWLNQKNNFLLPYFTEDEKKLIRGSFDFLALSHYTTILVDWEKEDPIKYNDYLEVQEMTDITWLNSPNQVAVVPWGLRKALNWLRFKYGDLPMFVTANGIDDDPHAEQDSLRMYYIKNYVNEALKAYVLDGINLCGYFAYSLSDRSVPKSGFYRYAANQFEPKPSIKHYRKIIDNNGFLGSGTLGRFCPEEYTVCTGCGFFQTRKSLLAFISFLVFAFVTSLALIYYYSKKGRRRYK
Put plainly: immunohistochemistry on freshly frozen unfixed rat parathyroid sections; freshly frozen unfixed rat parathyroid tissue (native fold). How it is done: For labeling, sections were blocked (PBS, 1.5% BSA, 10% goat serum; 40 min) and incubated with the primary antibody sb106 ([…] in blocking solution; 4° C. overnight). After washing (PBS), sections were incubated with the Alexa 546 goat anti-human IgG (1:800 dilution, Invitrogen) for 1 hour at room temperature. After additional washes with PBS, the sections were fixed with 4% paraformaldehyde in PBS, washed with PBS, and mounted and visualized with a Zeiss LSM510 microscope.
Sb106 was highly reactive against αKlotho under native conditions. Immunoblot signals under denaturing conditions against mouse, rat, and human kidney tissue were weak, but in samples from transgenic mice overexpressing αKlotho[79], sb106-Fab detected a band corresponding to the full-length extracellular domain of αKlotho (FIG. 2A). In cultured cells, sb106-Fab was not able to detect αKlotho in immunoblots under denaturing conditions with lysates from NRK cells expressing native αKlotho but it was able to detect overexpressed antigen in cell lysates from HEK293 cells transfected with αKlotho (FIG. 2B). […] Cells were then incubated with sb106-Fab ([…] in 1% BSA in PBS) for 1 hr. Cells were washed 5 times with cold PBS (2 min each) and then incubated with anti-FLAG-Alexa488 (the C-terminus of the Fab light chain contains a Flag epitope tag) (1:400 in 1% BSA in PBS) for 1 hr, while being protected from light. […]

T3 sequence (P02701 25-152): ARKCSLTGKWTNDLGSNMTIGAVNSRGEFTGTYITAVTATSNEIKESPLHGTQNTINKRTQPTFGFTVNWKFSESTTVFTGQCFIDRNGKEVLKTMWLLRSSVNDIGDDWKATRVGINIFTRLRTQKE
T4 sequence (P02769 25-607 limits assumed): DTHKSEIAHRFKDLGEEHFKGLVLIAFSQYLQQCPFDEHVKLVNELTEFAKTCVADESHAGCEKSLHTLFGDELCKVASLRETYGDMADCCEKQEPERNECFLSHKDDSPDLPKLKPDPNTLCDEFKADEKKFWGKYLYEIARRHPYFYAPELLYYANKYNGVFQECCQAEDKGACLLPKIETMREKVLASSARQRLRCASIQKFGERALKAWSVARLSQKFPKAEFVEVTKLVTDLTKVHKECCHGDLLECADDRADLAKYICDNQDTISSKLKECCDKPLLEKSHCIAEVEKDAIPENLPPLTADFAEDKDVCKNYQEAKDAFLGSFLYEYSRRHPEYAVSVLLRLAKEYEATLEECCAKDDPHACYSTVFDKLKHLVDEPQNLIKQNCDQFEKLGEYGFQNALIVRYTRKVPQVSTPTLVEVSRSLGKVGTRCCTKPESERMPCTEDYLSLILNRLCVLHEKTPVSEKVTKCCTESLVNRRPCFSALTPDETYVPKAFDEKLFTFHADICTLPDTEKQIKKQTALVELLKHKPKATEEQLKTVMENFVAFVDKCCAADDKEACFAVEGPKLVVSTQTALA

B1: sb106 Fab-phage (Fab, V domains shown)
VH: EVQLVESGGGLVQPGGSLRLSCAASGFNISYYSIHWVRQAPGKGLEWVAYISPSYGYTSYADSVKGRFTISADTSKNTAYLQMNSLRAEDTAVYYCARYYVYASHGWAGYGMDYWGQGTLVTVSS
VL: DIQMTQSPSSLSASVGDRVTITCRASQSVSSAVAWYQQKPGKAPKLLIYSASSLYSGVPSRFSGSRSGTDFTLTISSLQPEDFATYYCQQAGYSPITFGQGTKVEIKR
notes: also called sb106-phage; Sb106-phage
Usually Kd stands for the free concentration of one partner at which half of the binding sites on the other are occupied at equilibrium, for simple one-to-one binding. As usually defined, the IC50 is the concentration at which inhibition is half-maximal. Take B1: the Kd in test [1] was 1 to 2 nM. Moreover, the binding result (in test [2]; with neutravidin; in the test with bovine serum albumin) was “no binding” in each case. The IC50 in test [3] is 1.7 nM.

B2: sb106-IgG (antibody, V domains shown)
VH: EVQLVESGGGLVQPGGSLRLSCAASGFNISYYSIHWVRQAPGKGLEWVAYISPSYGYTSYADSVKGRFTISADTSKNTAYLQMNSLRAEDTAVYYCARYYVYASHGWAGYGMDYWGQGTLVTVSS
VL: DIQMTQSPSSLSASVGDRVTITCRASQSVSSAVAWYQQKPGKAPKLLIYSASSLYSGVPSRFSGSRSGTDFTLTISSLQPEDFATYYCQQAGYSPITFGQGTKVEIKR
For B2, the binding result in test [4] was “binds”.
